Measurements reported in PMC6030874.

Target: EGFP-MeCP2 R306C (mouse)

**Q.** “NCoR1 (from UniProt O75376 1-2440) (natural protein)” was tested. Which methylation-dependent transcriptional repression of a luciferase reporter (untagged MeCP2 e1 in Mecp2-/y, Mbd2-/- mouse tail fibroblasts), relative to WT MeCP2 did it give?
**A.** 25 % of WT
